Laboratory results taken from US9266964.
Substitutions are numbered along the chain they refer to.

B1: M208-F10 (Fab, V domains shown)
VH: EVQLLESGGGLVQPGGSLRLSCAASGFTFSHYLMTWVRQAPGKGLEWVSYISPSGGHTIYADSVKGRFTISRDNSKNTLYLQMNSLRAEDTAVYYCARVARGIAARSRTSYFDQWGQGTLVTVSS
VL: DIQMTQSPGTLSLSPGERATLSCRTSQFVNSNYLAWYQQTPGQAPRLLIYGASSRATGIPDRFSGTGYGTDFTLTISRLEPEDYGTYYCQQSSRTPWTFGQGTRVEIK
notes: Tested as Fab; printed HC runs into CH1; amber q written Q
B2: M205-D04 (Fab, V domains shown)
VH: B1 VH with H31T, L33K, T35Q, Y50S, H57P, I59N, Q114Y
VL: B1 VL
notes: as for B1
B3: M206-B10 (Fab, V domains shown)
VH: B1 VH with H31Q, T35A, Y50S, S52Y, H57W, I59K, Q114Y
VL: B1 VL
notes: as for B1
B4: M206-F01 (Fab, V domains shown)
VH: B1 VH with H31G, L33M, T35V, Y50R, H57P, Q114Y
VL: B1 VL
notes: Tested as Fab; printed HC runs into CH1
B5: M206-H08 (Fab, V domains shown)
VH: B1 VH with H31D, L33M, T35A, Y50S, S52V, I59H, Q114Y
VL: B1 VL
notes: as for B4
B6: M208-C06 (Fab, V domains shown)
VH: B1 VH with Y111F, F112I, Q114Y
VL: B1 VL
notes: as for B4
B7: M208-E10 (Fab, V domains shown)
VH: B1 VH with R101Q, A104S, Q114Y
VL: B1 VL
notes: as for B4
B8: M208-F04 (Fab, V domains shown)
VH: B1 VH with Y111F, Q114Y
VL: B1 VL
notes: as for B4
B9: M208-G03 (Fab, V domains shown)
VH: B1 VH with F112L, Q114Y
VL: B1 VL
notes: as for B4
B10: M208-H02 (Fab, V domains shown)
VH: B1 VH with A105S, S110R, F112C, Q114Y
VL: B1 VL
notes: as for B4
B11: M209-B09 (Fab, V domains shown)
VH: B1 VH with R101Q, A104V, F112L, D113H
VL: B1 VL
notes: as for B1
B12: M209-C11 (Fab, V domains shown)
VH: B1 VH with R98M, A100G, R101Q, A104R, A105G, D113A
VL: B1 VL
notes: as for B1
B13: M209-E02 (Fab, V domains shown)
VH: B1 VH with S110I, Y111L, F112L
VL: B1 VL
notes: as for B1
B14: M209-F04 (Fab, V domains shown)
VH: B1 VH with F112L, G116S
VL: B1 VL
notes: Tested as Fab; printed HC runs into CH1; amber q written Q; WSQGTL as printed
B15: M210-B02 (Fab, V domains shown)
VH: B1 VH with R98S, D113N
VL: B1 VL
notes: as for B1
B16: M210-C12 (Fab, V domains shown)
VH: B1 VH with R101Q, Y111S, F112V
VL: B1 VL
notes: as for B1
B17: M210-G04 (Fab, V domains shown)
VH: B1 VH with R101T, A104V, S110R
VL: B1 VL
notes: as for B1
B18: M210-G10 (Fab, V domains shown)
VH: B1 VH with F112L, Q114F
VL: B1 VL
notes: as for B4
B19: M210-H06 (Fab, V domains shown)
VH: B1 VH with S110R, Q114Y
VL: B1 VL
notes: as for B4
B20: M210-H07 (Fab, V domains shown)
VH: B1 VH with S110R
VL: B1 VL
notes: as for B1
B21: M142-H08 (Fab, V domains shown)
VH: EVQLLESGGGLVQPGGSLRLSCAASGFTFSAYSMIWVRQAPGKGLEWVSYIRPSGGRTTYADSVKGRFTISRDNSKNTLYLQMNSLRAEDTAVYYCARGGLLLWFRELKSNYFDYWGQGTLVTVSS
VL: DIQMTQSPSSLSAFVGDRVTITCRASQPIDNYLNWYHQKPGKAPKLLIYAASRLQSGVPSRLSGSGFGTDFTLTISSLQPEDFGNYYCQQSYTVPYTFGGGTKVEIR
notes: Printed HC runs from VH into the start of CH1
B22: M145-D01 (Fab, V domains shown)
VH: EVQLLESGGGLVQPGGSLRLSCAASGFTFSYYHMSWVRQAPGKGLEWVSVISPSGGSTKYADSVKGRFTISRDNSKNTLYLQMNSLRAEDTAVYYCARGGSSDYAWGSYRRPYYFDYWGQGTLVTVSS
VL: DIQMTQSPATLSLSPGERATLSCRASQSVSSYLAWYQQKPGQAPRLLIYDASNRATGIPARFSGSGSGTDFTLTISSLEPEDFAVYYCQQRSNWPRGFTFGPGTKVDIK
notes: as for B21
B23: M145-D11 (Fab, V domains shown)
VH: EVQLLESGGGLVQPGGSLRLSCAASGFTFSHYRMSWVRQAPGKGLEWVSSIYPSGGRTVYADSVKGRFTISRDNSKNTLYLQMNSLRAEDTAVYYCAKDKFEWRLLFRGIGNDAFDIWGQGTMVTVSS
VL: QSVLTQPPSVSVSPGQTASITCSGDKLGDKYTSWYQQRPGQSPVLVIYQDIKRPSGIPERFSGSNSGNTATLTISGTQAMDEADYYCQAWDSPNARVFGSGTKVTVL
notes: Printed HC runs from VH into the start of CH1; also called 559A-M145-D11; 559A-M0145-D11
B24: M146-E12 (Fab, V domains shown)
VH: EVQLLESGGGLVQPGGSLRLSCAASGFTFSRYIMHWVRQAPGKGLEWVSSISPSGGLTSYADSVKGRFTISRDNSKNTLYLQMNSLRAEDTAVYYCAREFENAYHYYYYGMDVWGQGTTVTVSS
VL: DIQMTQSPSSLSASVGDRVTITCRASGDIGNALGWYQQKPGKAPRLLISDASTLQSGVPLRFSGSGSGTEFTLTISSLQPEDFATYYCLQGYNYPRTFGQGTKLEIR
notes: as for B21
B25: M152-A12 (Fab, V domains shown)
VH: EVQLLESGGGLVQPGGSLRLSCAASGFTFSPYFMGWVRQAPGKGLEWVSGIGPSGGSTTYADSVKGRFTISRDNSKNTLYLQMNSLRAEDTAVYYCAREGPPYSSGWYRGLRQYHFDYWGQGTLVTVSS
VL: DIQMTQSPSSLSASVGDRVTITCRASQSISSYLSWYQQRPGKAPNLLIYAASSLQSGVPSRFSGSGSGTDFTLTISSLQPEDFATYYCQQSISIPRTFGQGTKVEVK
notes: as for B21
B26: M160-G12 (Fab, V domains shown)
VH: B1 VH with Q114Y
VL: DIQMTQSPSFLSASVGDRVTITCRASQGISSYLAWYQQKPGKAPKLLIYAASTLQSGVPSRFSGSGSGTEFTLTISSLQPEDFATYYCQQLNSYPLTFGGGTKVEIK
notes: Printed HC runs from VH into the start of CH1; also called R84-D02 (as IgG)
B27: M161-C11 (Fab, V domains shown)
VH: EVQLLESGGGLVQPGGSLRLSCAASGFTFSDYAMKWVRQAPGKGLEWVSSISSSGGVTQYADSVKGRFTISRDNSKNTLYLQMNSLRAEDTAVYYCAREEDYSSSWYSRRFDYYYGMDVWGQGTTVTVSS
VL: QSALTQPPSVSVSPGQTASITCSGDKLGDKYVSWYQQRPGQSPVLVIYQDTKRPSGIPERFSGSNSGNTATLTISGTQAVDEADYYCQAWDSSTYVFGGGTKVTVL
notes: as for B21
B28: M162-A04 (Fab, V domains shown)
VH: EVQLLESGGGLVQPGGSLRLSCAASGFTFSHYIMMWVRQAPGKGLEWVSGIYSSGGITVYADSVKGRFTISRDNSKNTLYLQMNSLRAEDTAVYYCAYRRTGIPRRDAFDIWGQGTMVTVSS
VL: DIQMTQSPSTLSASVGDRVTITCRASQSISSWLAWYQQKPGKAPNLLIYKASTLESGVPSRFSGSGSGTEFTLTISSLQPDDFATYYCQQYNTYWTFGQGTKVEIK
notes: Non-germlined Fab discovered using phage display; Printed HC runs from VH into the start of CH1; also called M162-A4; 559A-M162-A4

Experiments:
human plasma kallikrein [1] = target: T1, human plasma kallikrein (human, UniProt P03952 20-390; P03952 391-638); assay: cell-based or functional assay
T1 sequence (P03952 20-390, chain 1 of 2): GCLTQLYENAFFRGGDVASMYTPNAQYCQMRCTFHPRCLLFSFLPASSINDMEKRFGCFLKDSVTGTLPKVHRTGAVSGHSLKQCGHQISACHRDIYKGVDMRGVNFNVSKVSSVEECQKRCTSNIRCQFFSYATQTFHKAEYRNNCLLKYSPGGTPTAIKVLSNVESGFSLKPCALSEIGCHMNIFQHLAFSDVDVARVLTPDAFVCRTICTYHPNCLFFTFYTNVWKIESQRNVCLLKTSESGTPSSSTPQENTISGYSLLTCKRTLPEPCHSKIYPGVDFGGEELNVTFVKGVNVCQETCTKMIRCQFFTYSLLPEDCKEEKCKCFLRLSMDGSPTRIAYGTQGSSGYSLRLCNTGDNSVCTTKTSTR
T1 sequence (P03952 391-638, chain 2 of 2): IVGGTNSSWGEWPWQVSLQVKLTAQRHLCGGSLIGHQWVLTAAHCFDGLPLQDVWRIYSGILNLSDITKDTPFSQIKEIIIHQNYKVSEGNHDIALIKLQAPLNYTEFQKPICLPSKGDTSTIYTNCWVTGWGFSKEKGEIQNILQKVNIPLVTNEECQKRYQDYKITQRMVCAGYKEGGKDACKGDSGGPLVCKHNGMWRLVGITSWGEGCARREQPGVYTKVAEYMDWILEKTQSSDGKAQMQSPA

human plasma kallikrein [2] = target: T1, human plasma kallikrein; assay: Ki,app, inhibition of human pKal enzyme activity
human plasma kallikrein [3] = target: T2, human plasma kallikrein (human, UniProt P03952 20-390; P03952 391-638); assay: ELISA, biotinylated plasma kallikrein coated on microtiter plate, signal divided by streptavidin background
T2 construct: also called pKal; human pKal
Excerpt: Abbreviations used: "T/B" is the ELISA signal obtained using of the "target" (biotinylated plasma kallikrein) divided by the ELISA signal of the "background" (streptavidin); both of which were coated on microtiter plates. "nd" is not determined. The symbol "q" refers to the amber suppressible stop codon (TAG), which is translated as glutamine (Q) in strains of *E. coli* such as the TG1 cells that were used to express the Fab fragments.
T2 sequence (P03952 20-390, chain 1 of 2): as the sequence (P03952 20-390, chain 1 of 2) above
T2 sequence (P03952 391-638, chain 2 of 2): as the sequence (P03952 391-638, chain 2 of 2) above

human plasma kallikrein [4] = target: T2, human plasma kallikrein; assay: apparent inhibition constant (Ki,app) against human pKal, enzyme inhibition

Binder	% inhibition at 10 nM (human plasma kallikrein [1]) [%]	Ki (human plasma kallikrein [2]) [nM]	Human pKal ELISA (T/B) (human plasma kallikrein [3])	Ki (human plasma kallikrein [4]) [nM]
B1	92.5	0.2		
B2	91.5	0.4		
B3	94.7	0.3		
B4	92.6	0.2		
B5	96	0.17		
B6	91.7	0.4		
B7	93.7	0.09		
B8	95.4	0.2		
B9	93.4	0.3		
B10	94.4	0.2		
B11	93.5	0.2		
B12	96.2	0.14		
B13	92.4	0.3		
B14	97.6	0.09		
B15	90.9	0.2		
B16	95.6	0.16		
B17	94.2	0.3		
B18	91.2	0.4		
B19	93.8	0.2		
B20	92.8	0.4		
B21			29.9 ratio of ELISA signal on target to background (streptavidin)	0.2
B22			6.2 ratio of ELISA signal on target to background (streptavidin)	1.1
B23			40 ratio of ELISA signal on target to background (streptavidin)	0.79
B24			49.6 ratio of ELISA signal on target to background (streptavidin)	2.2
B25			19 ratio of ELISA signal on target to background (streptavidin)	< 100
B26			38.3 ratio of ELISA signal on target to background (streptavidin)	17
B27			41.8 ratio of ELISA signal on target to background (streptavidin)	0.3
B28			11.4 ratio of ELISA signal on target to background (streptavidin)	4.8
